Data reported in patent US20230295335A1 (published 2023).

T1: FcγRIIb (human, UniProt P31994 43-217, limits assumed)
T1 construct: Bought His-tagged protein; also called CD32B/Fcgr2b Protein, Human, Recombinant (His & AVI Tag)
T1 sequence (looked up): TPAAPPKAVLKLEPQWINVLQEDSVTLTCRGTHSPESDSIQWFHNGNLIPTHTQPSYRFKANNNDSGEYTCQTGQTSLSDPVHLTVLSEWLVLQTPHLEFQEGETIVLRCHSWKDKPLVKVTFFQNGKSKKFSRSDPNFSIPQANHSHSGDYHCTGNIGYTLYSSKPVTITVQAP

T2: FcγRIIa-H131 (human, UniProt P12318 34-218, limits assumed)
T2 construct: Bought His-tagged protein; also called CD32A Protein, Human, Recombinant (167 His, His Tag)
T2 sequence (looked up): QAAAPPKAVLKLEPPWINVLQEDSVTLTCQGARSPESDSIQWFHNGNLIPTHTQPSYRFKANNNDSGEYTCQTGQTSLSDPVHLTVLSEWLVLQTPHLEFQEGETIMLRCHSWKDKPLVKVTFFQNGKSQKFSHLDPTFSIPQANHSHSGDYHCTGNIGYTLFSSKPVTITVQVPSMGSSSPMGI

T3: FcγRIIa-R131 (human, UniProt P12318 34-218, limits assumed)
T3 construct: Bought His-tagged protein; also called CD32A Protein, Human, Recombinant (167 Arg, His & AVI Tag)
T3 sequence (looked up): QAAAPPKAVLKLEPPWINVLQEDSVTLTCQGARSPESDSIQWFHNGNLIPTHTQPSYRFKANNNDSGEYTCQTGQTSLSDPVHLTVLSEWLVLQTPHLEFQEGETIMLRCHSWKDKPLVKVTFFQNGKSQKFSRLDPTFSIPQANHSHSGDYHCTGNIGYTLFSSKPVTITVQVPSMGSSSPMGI

T4: full length human EpCAM on cells (human, UniProt P16422 24-314)
T4 construct: the cell line is named under assay; also called EpCAM on DiFi, HPAF-II and A549 tumor cells; CHO-S cells transfected with full length human EpCAM
T4 sequence: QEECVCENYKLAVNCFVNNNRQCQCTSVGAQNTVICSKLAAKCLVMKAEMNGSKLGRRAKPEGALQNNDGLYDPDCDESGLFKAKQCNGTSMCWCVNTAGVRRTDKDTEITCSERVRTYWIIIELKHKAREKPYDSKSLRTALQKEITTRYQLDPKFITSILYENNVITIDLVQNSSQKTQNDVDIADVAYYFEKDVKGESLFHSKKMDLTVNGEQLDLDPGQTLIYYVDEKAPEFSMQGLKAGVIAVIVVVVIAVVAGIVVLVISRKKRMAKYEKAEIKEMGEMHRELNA


Key:
[1] = molecular target: T5, neonatal Fc receptor (FcRn), His-tagged (SinoBiological, cat. no. CT009-H08H-B) (UniProt P55899 24-297); experiment: SPR kinetics assay at pH 6.0; His-tagged FcRn captured on anti-His chip, antibody 0-500 nM
Description: (§1) In a separate experiment, binding to neonatal Fc receptor (FcRn) was tested by SPR, using a kinetics assay with the following changes to the methods described above. […] Experiments were performed three times at pH 6.0 (under acidic conditions, at which IgG binds to FcRn) and two times at pH 7.4 (binding to IgG is not expected at this pH).

[2] = molecular target: T5, neonatal Fc receptor (FcRn), His-tagged …; experiment: SPR kinetics assay at pH 6.0; His-tagged FcRn captured on anti-His chip, antibody 0-500 nM; mean of three experiments
Description: as §1

FcγRIIb = molecular target: T1, FcγRIIb; experiment: SPR (Biacore 8K); His-tagged FcγR captured on anti-His chip
Description: (§2) At the end of each cycle, the surface was regenerated using 10 mM Glycine-HCl pH 1.5 (Cytiva, cat. no. BR100354).

FcγRIIIa-F158 = molecular target: T6, FcγRIIIa-F158 (human, UniProt P08637 17-208); experiment: as above
T6 construct: extracellular domain; Bought His-tagged protein
Description: as §2

FcγRIIa-H131 = molecular target: T2, FcγRIIa-H131; experiment: as above
Description: as §2

FcγRIIIa-V158 = molecular target: T7, FcγRIIIa-V158 (human, UniProt P08637 17-208); experiment: as above
T7 construct: Bought His-tagged protein
Description: as §2

FcγRIIa-R131 = molecular target: T3, FcγRIIa-R131; experiment: as above
Description: as §2

FcγRIa = molecular target: T8, FcγRIa (human, UniProt P12314 16-288, limits assumed, biotinylated); experiment: as above
T8 construct: Bought His-tagged protein captured on anti-His chip; also called CD64 Protein, Human, Recombinant (His Tag), Biotinylated
Description: as §2

[3] = molecular target: T4, full length human EpCAM on cells; experiment: flow cytometry on DiFi tumor cells
Description: Binding to the EpCAM-expressing human tumor cell lines DiFi, HPAF-II and A549 by bivalent EpCAM antibodies or bispecific antibodies carrying one EpCAM-binding arm was analyzed by flow cytometry. […] Next, cells were washed once (A-D) or twice (E) in FACS buffer, re-suspended in 100 μL FACS buffer and analyzed on a BD LSRFortessa FACS (BD Biosciences, USA), Celesta (BD Biosciences, USA) or iQue (Sartorius, Germany). Binding curves were analyzed using non-linear regression (sigmoidal dose-response with variable slope) using GraphPad Prism V7.02 software (GraphPad Software, San Diego, CA, USA).

T5 sequence (P55899 24-297 limits assumed, form in doubt): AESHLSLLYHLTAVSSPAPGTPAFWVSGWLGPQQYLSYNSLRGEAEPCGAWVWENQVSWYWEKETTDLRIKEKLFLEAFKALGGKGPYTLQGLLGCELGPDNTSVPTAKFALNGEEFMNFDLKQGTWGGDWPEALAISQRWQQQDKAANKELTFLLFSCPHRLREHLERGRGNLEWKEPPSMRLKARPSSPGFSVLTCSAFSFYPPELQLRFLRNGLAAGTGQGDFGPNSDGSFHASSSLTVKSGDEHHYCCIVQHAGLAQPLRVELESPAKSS
T7 sequence (P08637 17-208 F176V limits assumed): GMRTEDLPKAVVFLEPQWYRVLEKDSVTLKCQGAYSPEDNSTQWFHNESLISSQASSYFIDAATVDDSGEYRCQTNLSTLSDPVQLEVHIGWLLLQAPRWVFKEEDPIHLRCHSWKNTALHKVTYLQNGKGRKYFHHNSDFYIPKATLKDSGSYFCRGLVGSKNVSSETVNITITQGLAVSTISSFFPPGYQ
T6 sequence (P08637 17-208): as the sequence (P08637 17-208 F176V limits assumed) above, with V160F counted along it
T8 sequence (P12314 16-288 limits assumed): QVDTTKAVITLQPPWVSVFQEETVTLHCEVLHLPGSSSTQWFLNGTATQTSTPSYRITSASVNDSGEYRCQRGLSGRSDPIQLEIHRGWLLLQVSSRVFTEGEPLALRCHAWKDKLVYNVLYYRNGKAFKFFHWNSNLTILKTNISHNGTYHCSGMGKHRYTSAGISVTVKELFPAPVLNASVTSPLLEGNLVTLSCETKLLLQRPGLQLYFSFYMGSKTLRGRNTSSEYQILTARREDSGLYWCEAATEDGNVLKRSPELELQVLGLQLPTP

Binder | koff [1] [s⁻¹] | kon [1] [M⁻¹ s⁻¹] | Kd [2] [nM] | binding result (FcγRIIb) | binding result (FcγRIIIa-F158) | binding result (FcγRIIa-H131) | binding result (FcγRIIIa-V158) | binding result (FcγRIIa-R131) | binding result (FcγRIa) | binding result [3]
IgG1-CD137-009-HC7LC2-FEAR (antibody) heavy: EVQLVESGGGLVQPGRSLRLSCTASGFSLNDYWMSWVRQAPGKGLEWVGYIDVGGSLYYAASVKGRFTISRDDSKSIAYLQMNSLKTEDTAVYYCARGGLTYGFDLWGQGTLVTVSSASTKGPSVFPLAPSSKSTSGGTAALGCLVKDYFPEPVTVSWNSGALTSGVHTFPAVLQSSGLYSLSSVVTVPSSSLGTQTYICNVNHKPSNTKVDKRVEPKSCDKTHTCPPCPAPEFEGGPSVFLFPPKPKDTLMISRTPEVTCVVVAVSHEDPEVKFNWYVDGVEVHNAKTKPREEQYNSTYRVVSVLTVLHQDWLNGKEYKCKVSNKALPAPIEKTISKAKGQPREPQVYTLPPSREEMTKNQVSLTCLVKGFYPSDIAVEWESNGQPENNYKTTPPVLDSDGSFFLYSRLTVDKSRWQQGNVFSCSVMHEALHNHYTQKSLSLSPG light: DIVMTQSPSSLSASVGDRVTITCQASEDISSYLAWYQQKPGKAPKRLIYGASDLASGVPSRFSASGSGTDYTFTISSLQPEDIATYYCHYYATISGLGVAFGGGTKVEIKRTVAAPSVFIFPPSDEQLKSGTASVVCLLNNFYPREAKVQWKVDNALQSGNSQESVTEQDSKDSTYSLSSTLTLSKADYEKHKVYACEVTHQGLSSPVTKSFNRGEC | 0.0539 | 143000 | 375 | no binding (tested: 10,000 nM (highest concentration tested)) | no binding (tested: 10,000 nM (highest concentration tested)) | no binding (tested: 10,000 nM (highest concentration tested)) | no binding (tested: 10,000 nM (highest concentration tested)) | no binding (tested: 10,000 nM (highest concentration tested)) | no binding (tested: 3,000 nM (highest concentration tested)) | 
bsIgG1-b12-FERL/CD137-009-HC7LC2-FEAR (bispecific antibody, also called bsIgG1-b12-FERL/CD137-HC7LC2-FEAR; bsIgG1-b12-FERLxCD137-009-HC7LC2-FEAR) heavy 1: QVQLVQSGAEVKKPGASVKVSCQASGYRFSNFVIHWVRQAPGQRFEWMGWINPYNGNKEFSAKFQDRVTFTADTSANTAYMELRSLRSADTAVYYCARVGPYSWDDSPQDNYYMDVWGKGTTVIVSSASTKGPSVFPLAPSSKSTSGGTAALGCLVKDYFPEPVTVSWNSGALTSGVHTFPAVLQSSGLYSLSSVVTVPSSSLGTQTYICNVNHKPSNTKVDKRVEPKSCDKTHTCPPCPAPEFERGPSVFLFPPKPKDTLMISRTPEVTCVVVDVSHEDPEVKFNWYVDGVEVHNAKTKPREEQYNSTYRVVSVLTVLHQDWLNGKEYKCKVSNKALPAPIEKTISKAKGQPREPQVYTLPPSREEMTKNQVSLTCLVKGFYPSDIAVEWESNGQPENNYKTTPPVLDSDGSFLLYSKLTVDKSRWQQGNVFSCSVMHEALHNHYTQKSLSLSPG light 1: EIVLTQSPGTLSLSPGERATFSCRSSHSIRSRRVAWYQHKPGQAPRLVIHGVSNRASGISDRFSGSGSGTDFTLTITRVEPEDFALYYCQVYGASSYTFGQGTKLERKRTVAAPSVFIFPPSDEQLKSGTASVVCLLNNFYPREAKVQWKVDNALQSGNSQESVTEQDSKDSTYSLSSTLTLSKADYEKHKVYACEVTHQGLSSPVTKSFNRGEC heavy 2: EVQLVESGGGLVQPGRSLRLSCTASGFSLNDYWMSWVRQAPGKGLEWVGYIDVGGSLYYAASVKGRFTISRDDSKSIAYLQMNSLKTEDTAVYYCARGGLTYGFDLWGQGTLVTVSSASTKGPSVFPLAPSSKSTSGGTAALGCLVKDYFPEPVTVSWNSGALTSGVHTFPAVLQSSGLYSLSSVVTVPSSSLGTQTYICNVNHKPSNTKVDKRVEPKSCDKTHTCPPCPAPEFEGGPSVFLFPPKPKDTLMISRTPEVTCVVVAVSHEDPEVKFNWYVDGVEVHNAKTKPREEQYNSTYRVVSVLTVLHQDWLNGKEYKCKVSNKALPAPIEKTISKAKGQPREPQVYTLPPSREEMTKNQVSLTCLVKGFYPSDIAVEWESNGQPENNYKTTPPVLDSDGSFFLYSRLTVDKSRWQQGNVFSCSVMHEALHNHYTQKSLSLSPG light 2: DIVMTQSPSSLSASVGDRVTITCQASEDISSYLAWYQQKPGKAPKRLIYGASDLASGVPSRFSASGSGTDYTFTISSLQPEDIATYYCHYYATISGLGVAFGGGTKVEIKRTVAAPSVFIFPPSDEQLKSGTASVVCLLNNFYPREAKVQWKVDNALQSGNSQESVTEQDSKDSTYSLSSTLTLSKADYEKHKVYACEVTHQGLSSPVTKSFNRGEC |  |  |  |  |  |  |  |  |  | no binding (tested: up to 30 µg/mL)
bsIgG1-b12-FERL/b12-FEAR (bispecific antibody, also called b12-FERLxb12-FEAR; bsIgG1-ctrl-b12-FERL/b12-FEAR) heavy 1: QVQLVQSGAEVKKPGASVKVSCQASGYRFSNFVIHWVRQAPGQRFEWMGWINPYNGNKEFSAKFQDRVTFTADTSANTAYMELRSLRSADTAVYYCARVGPYSWDDSPQDNYYMDVWGKGTTVIVSSASTKGPSVFPLAPSSKSTSGGTAALGCLVKDYFPEPVTVSWNSGALTSGVHTFPAVLQSSGLYSLSSVVTVPSSSLGTQTYICNVNHKPSNTKVDKRVEPKSCDKTHTCPPCPAPEFERGPSVFLFPPKPKDTLMISRTPEVTCVVVDVSHEDPEVKFNWYVDGVEVHNAKTKPREEQYNSTYRVVSVLTVLHQDWLNGKEYKCKVSNKALPAPIEKTISKAKGQPREPQVYTLPPSREEMTKNQVSLTCLVKGFYPSDIAVEWESNGQPENNYKTTPPVLDSDGSFLLYSKLTVDKSRWQQGNVFSCSVMHEALHNHYTQKSLSLSPG heavy 2: QVQLVQSGAEVKKPGASVKVSCQASGYRFSNFVIHWVRQAPGQRFEWMGWINPYNGNKEFSAKFQDRVTFTADTSANTAYMELRSLRSADTAVYYCARVGPYSWDDSPQDNYYMDVWGKGTTVIVSSASTKGPSVFPLAPSSKSTSGGTAALGCLVKDYFPEPVTVSWNSGALTSGVHTFPAVLQSSGLYSLSSVVTVPSSSLGTQTYICNVNHKPSNTKVDKRVEPKSCDKTHTCPPCPAPEFEGGPSVFLFPPKPKDTLMISRTPEVTCVVVAVSHEDPEVKFNWYVDGVEVHNAKTKPREEQYNSTYRVVSVLTVLHQDWLNGKEYKCKVSNKALPAPIEKTISKAKGQPREPQVYTLPPSREEMTKNQVSLTCLVKGFYPSDIAVEWESNGQPENNYKTTPPVLDSDGSFFLYSRLTVDKSRWQQGNVFSCSVMHEALHNHYTQKSLSLSPG light: EIVLTQSPGTLSLSPGERATFSCRSSHSIRSRRVAWYQHKPGQAPRLVIHGVSNRASGISDRFSGSGSGTDFTLTITRVEPEDFALYYCQVYGASSYTFGQGTKLERKRTVAAPSVFIFPPSDEQLKSGTASVVCLLNNFYPREAKVQWKVDNALQSGNSQESVTEQDSKDSTYSLSSTLTLSKADYEKHKVYACEVTHQGLSSPVTKSFNRGEC |  |  |  |  |  |  |  |  |  | no binding (tested: up to 30 µg/mL)
IgG1-EpCAM-A37-FERL (antibody) heavy: not shown light: EIELTQSPGTLSLSPGERATLSCRASQTISNNYLAWYQQKRGQAPRLLIYAASSRATGIPDRFSGTGSGTDFTLTISRLEPEDFAVYYCAQGELYPRQFGGGTKLEIKRTVAAPSVFIFPPSDEQLKSGTASVVCLLNNFYPREAKVQWKVDNALQSGNSQESVTEQDSKDSTYSLSSTLTLSKADYEKHKVYACEVTHQGLSSPVTKSFNRGEC | 0.0413 | 180000 | 230 | no binding (tested: 10,000 nM (highest concentration tested)) | no binding (tested: 10,000 nM (highest concentration tested)) | no binding (tested: 10,000 nM (highest concentration tested)) | no binding (tested: 10,000 nM (highest concentration tested)) | no binding (tested: 10,000 nM (highest concentration tested)) | no binding (tested: 3,000 nM (highest concentration tested)) | 
